The experiment has as its target T1, GST-EC2 (GST fusion of extracellular loop 2 of human CD63, amino acids 108-202) (human, UniProt P08962 108-202).
T1 construct: range 108-202; Expressed in E. coli BL-21; on blots as total bacterial lysate, in BIAcore captured by immobilised anti-GST antibody; Vector-encoded residues between GST and the loop are not described; also called EC2 fusion polypeptide; not shown: glutathione S-transferase as encoded by the bacterial expression vector PGEX-4T-2 (Amersham Biosciences)
T1 sequence (looked up): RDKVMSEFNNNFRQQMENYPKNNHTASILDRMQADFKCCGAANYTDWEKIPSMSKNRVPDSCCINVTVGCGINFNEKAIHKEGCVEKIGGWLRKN
Nature of the experiment: BIAcore, steady state; GST-EC2 captured on immobilised anti-GST antibody, antibody injected at 12.5 to 200 nM; KD as reciprocal of KA.

B1: 7BD-33-11A monoclonal antibody (hybridoma ATCC PTA-4890) (antibody, V domains shown)
VH: EVQLQQSGPGLVKPGASVKMSCKASGYTFTSYVMHWVKQMPGQGLEWIGYITPYNDGTKYNEKFKGKATLTSDKSSSTAYMDLSSLTSEDSAVYYCVYGSRYDWYFDVWGAGTTVTVSS
VL: NIMMTQSPSSLAVSAGEKVTMSCKSSQSVLYSSNQKNYLAWYQQKPGQSPKLLIYWASTRESGVPDRFTGSGSGTDFTLTISSVQAEDLAVYYCHQYFSSYTFGGGTKLEIK
What is called Kd is the concentration at which binding is half-saturated. In turn, B1 came in with a Kd of 135 nM.

Values taken from patent publication US7431923.
